Test results: patent US7981423B2, “Rage fusion proteins” (Transtech Pharma, Inc., priority 2004, dated 2011)

Key:
Fc receptor = Fc receptor activation, TNF-α secretion from THP-1 cells; type: cell-based; conditions: FIG. 12
Source text: Fc stimulation results in TNF-α secretion.

male C57BL/6 mice = assay: Animal model of stroke (carotid/cerebral artery occlusion and reperfusion); type: in vivo, mouse; conditions: treated just prior to reperfusion
Description: For example, the RAGE fusion proteins of the present invention may also be used to treat stroke. […] In this model, the […] of a mouse is ligated and then reperfased to form an infart. To assess the efficacy of RAGE fusion proteins to treat or prevent stroke, mice were treated with sRAGE or TTP-4000 or control immunoglobulin just prior to reperfusion.
TTP-4000 was also compared to sRAGE in a disease relevant animal model of stroke. In this model, the […] of a mouse was ligated for 1 hour followed by 23 hours of reperfusion at which point the mice were sacrificed and the area of the infarct in the brain was assessed. […] After the nylon suture had been in place for 1 hour, the animal was re-anesthetized, rectal temperature was recorded and the suture was removed and the incision closed.
Infarct volume was determined by anesthetizing the animals with an intraperitoneal injection of sodium pentobarbital (50 mg/kg) and then removing the brains. […] The infarct area in each section was determined with a computer-assisted image analysis system, consisting of a Power Macintosh computer equipped with a Quick Capture frame grabber card, Hitachi CCD camera mounted on a camera stand. […] The images were captured and the total area of infarct was determined over the sections. […] Summing the infarct volumes of the sections calculated the total infarct volume. […]

APP transgenic mice = assay: Mouse model of AD (APP transgenic mice); type: in vivo
Description: Experiments were performed to evaluate whether TTP-4000 could affect amyloid formation and cognitive dysfunction in a mouse model of AD. The experiments utilized transgenic mice expressing the human Swedish mutant amyloid precursor protein (APP) under the control of the PDGF-B chain promoter. Over time, these mice generate high levels of the RAGE ligand, amyloid beta (Aβ).
The APP mice (male) used in this experiment were designed by microinjection of the human APP gene (with the Swedish and London mutations) into mouse eggs under the control of the platelet-derived growth factor B (PDGF-B) chain gene promoter. The mice were generated on a C57BL/6 background and were developed by Molecular Therapeutics Inc. Animals were fed ad libituin and maintained by brother sister mating. The mice generated from this construct develop amyloid deposits starting at 6 months of age. Animals were aged for 6 months and then maintained for 90 days and sacrificed for amyloid quantification.
APP transgenic mice were administered vehicle or TTP4000 every other day [qod (i.p.)] for 90 days starting at 6 months of age. At the end of the experiment, animals were sacrificed and examined for AP plaque burden in the brain (i.e., plaque number). A 6-month control APP group was used to determine the baseline of amyloid deposits. In addition, at the end of the study, the animals were subjected to behavioral (Morris water maze) analysis. The investigators were blinded to the study compounds. Samples were given to the mice at 0.25 ml/mouse/every other day.
For histological examination, the animals were anesthetized with an intraperitoneal injection (IP) of sodium pentobarbital (50 mg/kg). The animals were transcardially perfused with 4° C., phosphate-buffered saline (PBS) followed by 4% paraformaldehyde. The brains were removed and placed in 4% paraformaldehyde over night. The brains were processed to paraffin and embedded. Ten serial 30-μm thick sections through the brain were obtained. Sections were subjected to primary antibody overnight at 4° C. (Aβ peptide antibody) in order to detect the amyloid deposits in the brain of the transgenic animals (Guo et al., J. Neurosci., 22:5900-5909 (2002)). Sections were washed in Tris-buffered saline (TBS) and secondary antibody was added and incubated for 1 hour at room temperature. After washing, the sections were incubated as instructed in the Vector ABC Elite kit (Vector Laboratories) and stained with […] (DAB). The reactions were stopped in water and cover-slipped after treatment with xylene. The amyloid area in each section was determined with a computer-assisted image analysis system, consisting of a Power Macintosh computer equipped with a Quick Capture frame grabber card, Hitachi CCD camera mounted on an Olympus microscope and camera stand. NIH Image Analysis Software, v. 1.55 was used. The images were captured and the total area of amyloid was determined over the ten sections. A single operator blinded to treatment status performed all measurements. Summing the amyloid volumes of the sections and dividing by the total number of sections was done to calculate the amyloid volume.
For quantitative analysis, an enzyme-linked immunosorbent assay (ELISA) was used to measure the levels of human total Aβ, Aβtotal and Aβ1-42 in the brains of APP transgenic mice (Biosource International., Camarillo, Calif.). Aβtotal and Aβ1-42 were extracted from mouse brains by guanidine hydrochloride and quantified as described by the manufacturer. […]

B1: TTP-4000: four domain RAGE fusion protein (SEQ ID NO: 32): human RAGE amino acids 1-251 linked to CH2 and CH3 domains of human IgG (protein)
chain: MAAGTAVGAWALVLSLWGAVVGAQNITARIGEPLVLKCKGAPKKPPQRLEWKLNTGRTEAWKVLSPQGGGPWDSVARVLPNGSLFLPAVGIQDEGIFRCQAMNRNGKETKSNYRVRVYQIPGKPEIVDSASELTAGVPNKVGTCVSEGSYPAGTLSWHLDGKPLVPNEKGVSVKEQTRRHPETGLFTLQSELMVTPARGGDPRPTFSCSFSPGLPRHRALRTAPIQPRVWEPVPLEEVQLVVEPEGGAVAPPSVFLFPPKPKDTLMISRTPEVTCVVVDVSHEDPEVKFNWYVDGVEVHNAKTKPREEQYNSTYRVVSVLTVLHQDWLNGKEYKCKVSNKALPAPIEKTISKAKGQPREPQVYTLPPSRDELTKNQVSLTCLVKGFYPSDIAVEWESNGQPENNYKTTPPVLDSDGSFFLYSKLTVDKSRWQQGNVFSCSVMHEALHNHYTQKSLSLSPGK
Fc receptor; conditions where human IgG stimulation of TNF-α release is detected
  stimulation of TNF-α release from cells (in words): does not stimulate TNF-α release
Fc receptor; well precoated with 10 μg/well heat aggregated protein, THP-1 cells, 24 hours
  TNF generated: less than 2 ng/well
Male C57BL/6 mice
  reduction in infarct volume compared to sRAGE (in words): significantly greater reduction in infarct volume
APP transgenic mice; data not shown
  inflammatory cytokines IL-1 and TNF-α: can reduce
APP transgenic mice; treated for 3 months, versus vehicle and human IgG1, FIG. 14A
  Aβ plaques in the brain: fewer Aβ plaques
APP transgenic mice; treated for 3 months, versus vehicle and human IgG1, FIG. 14B
  cognitive dysfunction (Morris water maze): less cognitive dysfunction
